Assay results from PMC2113458.

Target: platelet membrane actin (human (endogenous in platelets)) (UniProt P60709)
Assay: SEC

Substance: glycoprotein IIb, form in the Triton X-100-insoluble fraction of platelet plasma membranes (natural protein)
- percent of surface GPIIb and III associated with the actin-rich void volume peak: > 85%
